Source: patent US12296006B2, “Anti-LY6H antibodies and antibody drug conjugates” (Bluefin BioMedicine, Inc., priority 2017, dated 2025)
Residue numbers refer to the chain shown, from its start.

B1: 12G7: human anti-LY6H antibody, VH SEQ ID NO: 22, VL SEQ ID NO: 26 (antibody, V domains shown)
VH: QVQLQQWGAGLLKPSETLSLTCAVYGGSFSGYYWSWIRQPPGKGLEWIGEINHSGSTYYNPSLKSRVTMSVDTSKNQFSLKLSSVTAADTAVYYCAKRWELGAFDIWGQGTMVTVSS
VL: DIQMTQSPSSLSASVGDRVTITCRASQGISNYLAWYQQKPGKVPKLLIYAASTLQSGVPSRFSGSGSGTDFTLTISSLQPEDVATYYCQKYNSAPRTFGQGTKLEIK
B2: 6D11: human anti-LY6H antibody, VH SEQ ID NO: 1, VL SEQ ID NO: 5 (antibody, V domains shown)
VH: QVQLQQWGAGLFKPSETLSLTCAVYGGSFSGSLWSWIRQPPGKGLEWIGEINHSGSTNYTPSLKSRVTISVDTSKNQFSLKLTSVTAADTAVYYCARGRHIVVVTAIHSPFDYWGQGTLVTVSS
VL: B1 VL with Y49F
B3: 10B10: human anti-LY6H antibody, VH SEQ ID NO: 60, VL SEQ ID NO: 26 (antibody, V domains shown)
VH: QVQLQQWGAGLLKPSETLSLTCAVYGGSFSGYYWHWIRQPPGKGLEWIGEINHSESTKYNPSLKSRVTISVDTSKNQFSLKLSSVTGADTAVYYCARGQHIVVVTDSLGDYWGQGTLVTVSS
VL: B1 VL

Experiments:
MOLT3 = test: Anti-Ly6H antibodies binding to endogenous cell lines by flow cytometry: MOLT3; set-up: species or system human; key: (−): No binding; (+): Weak binding; (++): Moderate binding; (+++): Strong binding; (++++): Very strong binding; details: primary antibodies 1 ug/ml, live cells on ice 30 minutes
Method: (§1) Staining for flow cytometry was performed in 1× cold PBS with 0.5% BSA. Primary antibodies (1 ug/ml) were incubated with live cells on ice for 30 minutes, after a brief wash, cells were incubated with Alexa Fluro® 488-conjugated anti-human IgG secondary antibody @1:1000 (709-546-149, Jackson ImmunoResearch). Acquisition of the data was performed on a MACSQuant© Flow Cytometers (Miltenyi Biotec) and analyzed with FlowJo software.
(§2) Fully human antibodies against LY6H were generated by hybridoma procedures. Briefly, H2L2 mice were immunized with either recombinant human Ly6H-ECD or BaF3 cells over-expressing LY6H and boosted with rabbit splenocytes expressing full length human LY6H or with ECD of LY6H recombinant protein. Splenocytes were fused with the mouse myeloma cell line X63-Ag8.653. Clones from H2L2 mice were identified by immunofluorescence (IF) based high content screening (HCS) on 293 cells overexpressing hLY6H, ratLy6H, and parental 293 cells not expressing LY6H, as well as endogenous small cell lung cancer (SCLC) cell line, H446. […] 270 hits were cryopreserved and stored in liquid nitrogen. Approximately 100 clones were selected for molecular cloning. Based on unique CDR3 sequences from the heavy chain variable domain, 10 antibodies from 8 families were chosen and confirmed by flow cytometry (MACSQuant® miltenybiotec.com) on the following cell lines. The small-cell-lung cancer cells (SCLC) included H446, DMS79, and H526 cells. The T-cell acute lymphoblastic leukemia (T-ALL) cancer cells included MOLT3 and KE-37 cells.

DMS79 = test: Anti-Ly6H antibodies binding to endogenous cell lines by flow cytometry: DMS79; set-up: species or system human; key: (−): No binding; (+): Weak binding; (++): Moderate binding; (+++): Strong binding; (++++): Very strong binding; details: primary antibodies 1 ug/ml, live cells on ice 30 minutes
Method: as §1, §2

[1] = target: H446, DMS79, H526, and MOLT3; test: Measurement of antibody EC50 by flow cytometry; format: binding, human; details: 100 nM to 0.1 nM antibody
Method: The assay uses 3-5 fold dilutions (from 100 nM to 0.1 nM) of antibody of a stock antibody concentration (100 nM) in binding buffer. Serial diluted antibodies were incubated with live cells on ice for 30 minutes, after a brief wash, cells were incubated with Alexa Fluro® 488-conjugated anti-human IgG secondary antibody @1:100, or 15 ug/ml (709-546-149, Jackson ImmunoResearch). Acquisition of the MFI (Median Fluorescent Intensity) was performed on a MACSQuant® Flow Cytometers (Miltenyi Biotec). EC50 was calculated using Dose-response EC50 shift by global fitting from GraphPad Prism.
EC50 or the concentration of antibody that gives half-maximal binding is determined by direct and saturable binding of an antibody dilution series to both target positive and negative cell lines. An estimate of affinity is interpreted from one-half the concentration at which antibody binding first achieves saturation. EC50 was measured in the following cell lines H446, DMS79, H526, and MOLT3 (FIG. 4). Though EC50 may not provide an accurate measure of affinity, it allows for ranking ordering of antibodies. 12G7, 11D9, 10B10, and 6D11 were ranked top, followed by 34H6, 1F8, and 2B11.

H446 cells = test: Internalization assay in H446 cells (LAMP1 co-staining); format: cell-based, human; details: live H446 cells incubated with antibody at 37° C., fixed, permeablized, LAMP1 co-stain
Method: Live H446 cells were incubated with 12G7 for 2 hours, cells were then fixed, permeablized, and co-stained with LAMP1 antibody.
Live H446 cells were incubated with 12G7 antibody for 30 minutes at 37° C. After cytospin, cells were fixed with 4% PFA and permeablized with 100% methanol, and stained with LAMP1 antibody (#9091, Cell Signaling Technology, Inc.).

EOL1 = test: Anti-Ly6H antibodies binding to endogenous cell lines by flow cytometry: EOL1; set-up: species or system human; key: (−): No binding; (+): Weak binding; (++): Moderate binding; (+++): Strong binding; (++++): Very strong binding; details: primary antibodies 1 ug/ml, live cells on ice 30 minutes
Method: as §1
as §2, with “The small-cell-lung cancer cells (SCLC) included H446, DMS79, and H526 cells. The T-cell acute lymphoblastic leukemia (T-ALL) cancer cells included MOLT3 and KE-37 cells.” left out

[2] = test system: LY6H positive SCLC and T cell acute lymphoblastic leukemia (T-ALL) cell lines; test: Flow cytometry binding of 12G7 to SCLC and T-ALL cell lines (FIG. 2); set-up: species or system human
Method: Dotted lines represent LY6H antibody.
as §1
as §2, with “Based on unique CDR3 sequences from the heavy chain variable domain, 10 antibodies from 8 families were chosen and confirmed by flow cytometry (MACSQuant® miltenybiotec.com) on the following cell lines. The small-cell-lung cancer cells (SCLC) included H446, DMS79, and H526 cells. The T-cell acute lymphoblastic leukemia (T-ALL) cancer cells included MOLT3 and KE-37 cells.” left out

H446 = test: Anti-Ly6H antibodies binding to endogenous cell lines by flow cytometry: H446; set-up: species or system human; key: (−): No binding; (+): Weak binding; (++): Moderate binding; (+++): Strong binding; (++++): Very strong binding; details: primary antibodies 1 ug/ml, live cells on ice 30 minutes
Method: as §1, §2

H69 = test: Anti-Ly6H antibodies binding to endogenous cell lines by flow cytometry: H69; set-up: species or system human; key: (−): No binding; (+): Weak binding; (++): Moderate binding; (+++): Strong binding; (++++): Very strong binding; details: primary antibodies 1 ug/ml, live cells on ice 30 minutes
Method: as §1
as §2, with “The small-cell-lung cancer cells (SCLC) included H446, DMS79, and H526 cells. The T-cell acute lymphoblastic leukemia (T-ALL) cancer cells included MOLT3 and KE-37 cells.” left out

KE-37 = test: Anti-Ly6H antibodies binding to endogenous cell lines by flow cytometry: KE-37; set-up: species or system human; key: (−): No binding; (+): Weak binding; (++): Moderate binding; (+++): Strong binding; (++++): Very strong binding; details: primary antibodies 1 ug/ml, live cells on ice 30 minutes
Method: as §1, §2

rank ordering of antibodies by EC50 (half-maximal binding) [1] | Molecule | binding by flow cytometry, MOLT3 (MOLT3) | binding by flow cytometry, DMS79 (DMS79) | internalization / co-localization with LAMP1 (H446 cells) | binding by flow cytometry, EOL1 (EOL1) | binding to LY6H positive SCLC and T-ALL cell lines [2] | binding by flow cytometry, H446 (H446) | binding by flow cytometry, H69 (H69) | binding by flow cytometry, KE-37 (KE-37)
ranked top | B1 | (+++) | (+++) | internalization | (−) | binds | (++++) | (−) | (++++)
ranked top | B2 | (+++) | (+++) | – | – | – | (++++) | – | (++++)
ranked top | B3 | (+++) | (+++) | – | – | – | (++++) | – | (++++)
